Results published in PMC5335568, “Molecular basis for the role of oncogenic histone mutations in modulating H3K36 methylation” (Scientific Reports, 2017).

Biological target: T1, SET domain of human SETD2 (residue 1435–1711, encompassing the AWS, SET, and post-SET regions) (human, UniProt Q9BYW2 1435-1711)
T1 construct: SETD2, human, residues 1435–1711 (AWS, SET and post-SET regions), in the pET28-MHL vector; The His-tag was not removed for crystallization; A longer construct (1347–1711, 6xHis, Talon beads) was used for the histone methyltransferase assays; also called SETD2 SET domain; recombinant SET domain of SETD2; not shown: His6, N-terminal, kept
T1 sequence (looked up): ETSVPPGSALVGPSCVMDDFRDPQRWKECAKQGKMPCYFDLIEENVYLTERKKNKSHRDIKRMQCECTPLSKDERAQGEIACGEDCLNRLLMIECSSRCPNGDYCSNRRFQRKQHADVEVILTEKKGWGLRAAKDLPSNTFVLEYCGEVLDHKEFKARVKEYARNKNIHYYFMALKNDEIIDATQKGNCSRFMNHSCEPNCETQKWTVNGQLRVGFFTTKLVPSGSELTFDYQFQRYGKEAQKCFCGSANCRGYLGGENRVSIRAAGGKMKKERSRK
Assay: crystal structure; SETD2 (10 mg/ml) incubated with SAM and H3K36M peptide at a molar ratio of 1:10:10; sitting drop, 20 °C, 0.1 M KSCN, 24% PEG 2000 MME; two ternary complexes, with SAM (2.42 Å) and with SAH (2.4 Å)
Details: both partners purified

B1: H3K36M peptide (29-APATGGVMKPHRYRP-43) (peptide)
peptide: APATGGVMKPHRYRP
notes: histone H3 tail, residues 29–43, with K36M; also called H3K36M (29–43) peptide; source: synthetic peptide (Eurogentec for the crystals; Anaspec for the thermal shift assay)
binding result: binds
